Data set [1] relates to N-MeLeu9-apelin-17 A2 (11).
The test system of data set [2] is apelin-17 A2 (5).
Data set [3] concerns apelin-17 (2).

recombinant human plasma kallikrein KLKB1 (rhKLKB1, Novoprotein), sequence (chain, as listed by the source): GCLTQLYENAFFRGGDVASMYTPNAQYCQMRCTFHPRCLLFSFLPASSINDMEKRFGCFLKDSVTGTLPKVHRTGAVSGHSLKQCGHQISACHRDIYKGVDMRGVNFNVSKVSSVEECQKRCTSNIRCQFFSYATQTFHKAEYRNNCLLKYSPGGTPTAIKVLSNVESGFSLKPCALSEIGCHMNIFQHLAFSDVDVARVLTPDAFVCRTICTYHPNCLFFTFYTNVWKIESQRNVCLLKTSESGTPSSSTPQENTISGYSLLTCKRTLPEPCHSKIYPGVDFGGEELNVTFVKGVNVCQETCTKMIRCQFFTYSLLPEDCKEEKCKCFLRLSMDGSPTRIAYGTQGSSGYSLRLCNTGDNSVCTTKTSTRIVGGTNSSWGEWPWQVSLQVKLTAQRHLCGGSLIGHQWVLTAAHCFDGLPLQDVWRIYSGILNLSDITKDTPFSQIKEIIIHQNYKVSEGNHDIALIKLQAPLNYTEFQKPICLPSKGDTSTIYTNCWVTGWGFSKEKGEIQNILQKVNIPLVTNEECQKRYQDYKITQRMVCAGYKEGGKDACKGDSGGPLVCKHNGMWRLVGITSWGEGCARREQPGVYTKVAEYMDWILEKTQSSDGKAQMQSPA

The Km is the concentration of substrate that gives half-maximal velocity. For “recombinant human plasma kallikrein KLKB1 (rhKLKB1, Novoprotein)”, the figures for the Michaelis-Menten constant (Km) in data set [1], in data set [2] and in data set [3] were 245 µM, 30 µM and 97 µM, respectively. Moreover, the kcat (1/S) in data set [1] was 16.5 1/S; in data set [2] it was 1.4 1/S; in data set [3], 13.7 1/S. In addition, the kcat/Km (1/MS) in data set [1] was 67000 1/MS; in data set [2], 47000 1/MS; in data set [3] it was 140000 1/MS.

The values above are taken from patent publication US20200239537.
